Assay results published in the RNAGym collection of RNA variant scans (doi:10.7554/elife.80360).

B1: CPEB3 Ribozyme (parent)
chain: GGGGGCCACAGCAGAAGCGUUCACGUCGCGGCCCCUGUCAGAUUCUGGUGAAUCUGCGAAUUCUGCUGU

Variants of: B1
Experiment: self-cleavage, relative activity (ratio to wild type); higher = more cleavage; co-transcriptional

Variant	self-cleavage
GGGGGCCACAGCAGAAGCGUUCACGUAGCGGCCCCUGUCAGAUUCUGGUGAAUCUGCGAGUUCUGCUGU	0.253
GGGGGCCACAGCAGAAGCGUUCACGUAGCGGCCCCUGUCAGAUUCUGGUGAAUCUGCGAUUUCUGCUGU	0.249
GGGGGCCACAGCAGAAGCGUUCACGUAGGGGCCCCUGUCAGAUUCUGGUGAAUCUGCGAAUUCUGCUGU	0.195
GGGGGCCACAGCAGAAGCGUUCACGUAGCGGACCCUGUCAGAUUCUGGUGAAUCUGCGAAUUCUGCUGU	0.241
GGGGGCCACAGCAGAAGCGUUCACGUAGCGGGCCCUGUCAGAUUCUGGUGAAUCUGCGAAUUCUGCUGU	0.155
GGGGGCCACAGCAGAAGCGUUCACGUAGCGGCACCUGUCAGAUUCUGGUGAAUCUGCGAAUUCUGCUGU	0.288
GGGGGCCACAGCAGAAGCGUUCACGUAGCGGCGCCUGUCAGAUUCUGGUGAAUCUGCGAAUUCUGCUGU	0.224
GGGGGCCACAGCAGAAGCGUUCACGUAGCGGCUCCUGUCAGAUUCUGGUGAAUCUGCGAAUUCUGCUGU	0.539
GGGGGCCACAGCAGAAGCGUUCACGUAGCGGCCACUGUCAGAUUCUGGUGAAUCUGCGAAUUCUGCUGU	0.164
GGGGGCCACAGCAGAAGCGUUCACGUAGCGGCCGCUGUCAGAUUCUGGUGAAUCUGCGAAUUCUGCUGU	0.219
GGGGGCCACAGCAGAAGCGUUCACGUAGCGGCCUCUGUCAGAUUCUGGUGAAUCUGCGAAUUCUGCUGU	0.52
GGGGGCCACAGCAGAAGCGUUCACGUAGCGGCCCAUGUCAGAUUCUGGUGAAUCUGCGAAUUCUGCUGU	0.209
GGGGGCCACAGCAGAAGCGUUCACGUAGCGGCCCUUGUCAGAUUCUGGUGAAUCUGCGAAUUCUGCUGU	0.441
GGGGGCCACAGCAGAAGCGUUCACGUAGCGGCCCCUGUAAGAUUCUGGUGAAUCUGCGAAUUCUGCUGU	0.205
GGGGGCCACAGCAGAAGCGUUCACGUAGCGGCCCCUGUGAGAUUCUGGUGAAUCUGCGAAUUCUGCUGU	0.346
GGGGGCCACAGCAGAAGCGUUCACGUAGCGGCCCCUGUUAGAUUCUGGUGAAUCUGCGAAUUCUGCUGU	0.339
GGGGGCCACAGCAGAAGCGUUCACGUAGCGGCCCCUGUCAGAUUAUGGUGAAUCUGCGAAUUCUGCUGU	0.504
GGGGGCCACAGCAGAAGCGUUCACGUAGCGGCCCCUGUCAGAUUGUGGUGAAUCUGCGAAUUCUGCUGU	0.578
GGGGGCCACAGCAGAAGCGUUCACGUAGCGGCCCCUGUCAGAUUCUGGUGAAUAUGCGAAUUCUGCUGU	0.25
GGGGGCCACAGCAGAAGCGUUCACGUAGCGGCCCCUGUCAGAUUCUGGUGAAUCUGAGAAUUCUGCUGU	0.189
GGGGGCCACAGCAGAAGCGUUCACGUAGCGGCCCCUGUCAGAUUCUGGUGAAUCUGUGAAUUCUGCUGU	0.173
GGGGGCCACAGCAGAAGCGUUCACGUAGCGGCCCCUGUCAGAUUCUGGUGAAUCUGCGAAUUAUGCUGU	0.227
GGGGGCCACAGCAGAAGCGUUCACGUAGCGGCCCCUGUCAGAUUCUGGUGAAUCUGCGAAUUCUGAUGU	0.334
GGGGGCCACAGCAGAAGCGUUCACGUAGCGGCCCCUGUCAGAUUCUGGUGAAUCUGCGAAUUCUGGUGU	0.327
GGGGGCCACAGCAGAAGCGUUCACGUAACGGCCCCUGUCAGAUUCUGGUGAAUCUGCGAAUUCUGCUGU	0.18
GGGGGCCACAGCAGAAGCGUUCACGUACCGGCCCCUGUCAGAUUCUGGUGAAUCUGCGAAUUCUGCUGU	0.158

Variant	self-cleavage
GGGGGCCACAGCAGAAGCGUUCACGUAUCGGCCCCUGUCAGAUUCUGGUGAAUCUGCGAAUUCUGCUGU	0.187
GGGGGCCACAGCAGAAGCGUUCACGUAGCAGCCCCUGUCAGAUUCUGGUGAAUCUGCGAAUUCUGCUGU	0.176
GGGGGCCACAGCAGAAGCGUUCACGUAGCCGCCCCUGUCAGAUUCUGGUGAAUCUGCGAAUUCUGCUGU	0.138
GGGGGCCACAGCAGAAGCGUUCACGUAGCGCCCCCUGUCAGAUUCUGGUGAAUCUGCGAAUUCUGCUGU	0.181
GGGGGCCACAGCAGAAGCGUUCACGUAGCGGCCCCUCUCAGAUUCUGGUGAAUCUGCGAAUUCUGCUGU	0.17
GGGGGCCACAGCAGAAGCGUUCACGUAGCGGCCCCUUUCAGAUUCUGGUGAAUCUGCGAAUUCUGCUGU	0.17
GGGGGCCACAGCAGAAGCGUUCACGUAGCGGCCCCUGUCAAAUUCUGGUGAAUCUGCGAAUUCUGCUGU	0.196
GGGGGCCACAGCAGAAGCGUUCACGUAGCGGCCCCUGUCACAUUCUGGUGAAUCUGCGAAUUCUGCUGU	0.149
GGGGGCCACAGCAGAAGCGUUCACGUAGCGGCCCCUGUCAGAUUCUCGUGAAUCUGCGAAUUCUGCUGU	0.72
GGGGGCCACAGCAGAAGCGUUCACGUAGCGGCCCCUGUCAGAUUCUUGUGAAUCUGCGAAUUCUGCUGU	0.738
GGGGGCCACAGCAGAAGCGUUCACGUAGCGGCCCCUGUCAGAUUCUGGUAAAUCUGCGAAUUCUGCUGU	0.587
GGGGGCCACAGCAGAAGCGUUCACGUAGCGGCCCCUGUCAGAUUCUGGUCAAUCUGCGAAUUCUGCUGU	0.493
GGGGGCCACAGCAGAAGCGUUCACGUAGCGGCCCCUGUCAGAUUCUGGUUAAUCUGCGAAUUCUGCUGU	0.647
GGGGGCCACAGCAGAAGCGUUCACGUAGCGGCCCCUGUCAGAUUCUGGUGAAUCUCCGAAUUCUGCUGU	0.187
GGGGGCCACAGCAGAAGCGUUCACGUAGCGGCCCCUGUCAGAUUCUGGUGAAUCUUCGAAUUCUGCUGU	0.371
GGGGGCCACAGCAGAAGCGUUCACGUAGCGGCCCCUGUCAGAUUCUGGUGAAUCUGCAAAUUCUGCUGU	0.377
GGGGGCCACAGCAGAAGCGUUCACGUAGCGGCCCCUGUCAGAUUCUGGUGAAUCUGCUAAUUCUGCUGU	0.727
GGGGGCCACAGCAGAAGCGUUCACGUAGCGGCCCCUGUCAGAUUCUGGUGAAUCUGCGAAUUCUACUGU	0.255
GGGGGCCACAGCAGAAGCGUUCACGUAGCGGCCCCUGUCAGAUUCUGGUGAAUCUGCGAAUUCUCCUGU	0.288
GGGGGCCACAGCAGAAGCGUUCACGUAGCGGCCCCUGUCAGAUUCUGGUGAAUCUGCGAAUUCUUCUGU	0.202
GGGGGCCACAGCAGAAGCGUUCACGUAGCGGCCCCUGUCAGAUUCUGGUGAAUCUGCGAAUUCUGCUAU	0.853
GGGGGCCACAGCAGAAGCGUUCACGUAGCGGCCCCCGUCAGAUUCUGGUGAAUCUGCGAAUUCUGCUGU	0.261
GGGGGCCACAGCAGAAGCGUUCACGUAGCGGCCCCGGUCAGAUUCUGGUGAAUCUGCGAAUUCUGCUGU	0.146
GGGGGCCACAGCAGAAGCGUUCACGUAGCGGCCCCUGACAGAUUCUGGUGAAUCUGCGAAUUCUGCUGU	0.26
GGGGGCCACAGCAGAAGCGUUCACGUAGCGGCCCCUGCCAGAUUCUGGUGAAUCUGCGAAUUCUGCUGU	0.324
GGGGGCCACAGCAGAAGCGUUCACGUAGCGGCCCCUGUCAGAAUCUGGUGAAUCUGCGAAUUCUGCUGU	0.18

Variant	self-cleavage
GGGGGCCACAGCAGAAGCGUUCACGUAGCGGCCCCUGUCAGAGUCUGGUGAAUCUGCGAAUUCUGCUGU	0.226
GGGGGCCACAGCAGAAGCGUUCACGUAGCGGCCCCUGUCAGAUACUGGUGAAUCUGCGAAUUCUGCUGU	0.439
GGGGGCCACAGCAGAAGCGUUCACGUAGCGGCCCCUGUCAGAUCCUGGUGAAUCUGCGAAUUCUGCUGU	0.354
GGGGGCCACAGCAGAAGCGUUCACGUAGCGGCCCCUGUCAGAUGCUGGUGAAUCUGCGAAUUCUGCUGU	0.295
GGGGGCCACAGCAGAAGCGUUCACGUAGCGGCCCCUGUCAGAUUCAGGUGAAUCUGCGAAUUCUGCUGU	0.736
GGGGGCCACAGCAGAAGCGUUCACGUAGCGGCCCCUGUCAGAUUCGGGUGAAUCUGCGAAUUCUGCUGU	0.725
GGGGGCCACAGCAGAAGCGUUCACGUAGCGGCCCCUGUCAGAUUCUGGCGAAUCUGCGAAUUCUGCUGU	0.702
GGGGGCCACAGCAGAAGCGUUCACGUAGCGGCCCCUGUCAGAUUCUGGGGAAUCUGCGAAUUCUGCUGU	0.59
GGGGGCCACAGCAGAAGCGUUCACGUAGCGGCCCCUGUCAGAUUCUGGUGAAACUGCGAAUUCUGCUGU	0.344
GGGGGCCACAGCAGAAGCGUUCACGUAGCGGCCCCUGUCAGAUUCUGGUGAACCUGCGAAUUCUGCUGU	0.213
GGGGGCCACAGCAGAAGCGUUCACGUAGCGGCCCCUGUCAGAUUCUGGUGAAUCAGCGAAUUCUGCUGU	0.237
GGGGGCCACAGCAGAAGCGUUCACGUAGCGGCCCCUGUCAGAUUCUGGUGAAUCCGCGAAUUCUGCUGU	0.272
GGGGGCCACAGCAGAAGCGUUCACGUAGCGGCCCCUGUCAGAUUCUGGUGAAUCGGCGAAUUCUGCUGU	0.226
GGGGGCCACAGCAGAAGCGUUCACGUAGCGGCCCCUGUCAGAUUCUGGUGAAUCUGCGAACUCUGCUGU	0.191
GGGGGCCACAGCAGAAGCGUUCACGUAGCGGCCCCUGUCAGAUUCUGGUGAAUCUGCGAAGUCUGCUGU	0.367
GGGGGCCACAGCAGAAGCGUUCACGUAGCGGCCCCUGUCAGAUUCUGGUGAAUCUGCGAAUACUGCUGU	0.288
GGGGGCCACAGCAGAAGCGUUCACGUAGCGGCCCCUGUCAGAUUCUGGUGAAUCUGCGAAUCCUGCUGU	0.365
GGGGGCCACAGCAGAAGCGUUCACGUAGCGGCCCCUGUCAGAUUCUGGUGAAUCUGCGAAUGCUGCUGU	0.241
GGGGGCCACAGCAGAAGCGUUCACGUAGCGGCCCCUGUCAGAUUCUGGUGAAUCUGCGAAUUCAGCUGU	0.286
GGGGGCCACAGCAGAAGCGUUCACGUAGCGGCCCCUGUCAGAUUCUGGUGAAUCUGCGAAUUCGGCUGU	0.319
GGGGGCCACAGCAGAAGCGUUCACGUAGCGGCCCCUGUCAGAUUCUGGUGAAUCUGCGAAUUCUGCAGU	0.685
GGGGGCCACAGCAGAAGCGUUCACGUAGCGGCCCCUGUCAGAUUCUGGUGAAUCUGCGAAUUCUGCCGU	0.66
GGGGGCCACAGCAGAAGCGUUCACGUAGCGGCCCCUGUCAGAUUCUGGUGAAUCUGCGAAUUCUGCUGA	0.843
GGGGGCCACAGCAGAAGCGUUCACGUAGCGGCCCCUGUCAGAUUCUGGUGAAUCUGCGAAUUCUGCUGC	0.955
GGGGGCCACAGCAGAAGCGUUCACGUAGCGGCCCCUGUCAGAUUCUGGUGAAUCUGCGAAUUCUGCUGG	0.825
GGGGGCCACAGCAGAAGCGUUCACGUGGCGGCCCCUGUCAGAUUCUGGUGAAUCUGCGAAUUCUGCUGU	0.197
